{"source": "patent US20200299413A1", "about": "(BIOMUNEX PHARMACEUTICALS, published 2020)", "binders": {"B1": {"name": "parental anti-CD38 mAb (daratumumab) (antibody, V domains shown)", "VH": "EVQLLESGGGLVQPGGSLRLSCAVSGFTFNSFAMSWVRQAPGKGLEWVSAISGSGGGTYYADSVKGRFTISRDNSKNTLYLQMNSLRAEDTAVYFCAKDKILWFGEPVFDYWGQGTLVTVSS", "VL": "not shown"}}, "target": "CD38 on RPMI-8226 multiple myeloma cells (UniProt P28907 1-300, limits assumed)", "assay": "cell-based or functional assay", "data": [{"binder": "B1", "values": [{"measurement": "ADCC (51Chromium release) EC50 on RPMI-8226 cells, non-pre-activated MNC effectors", "value": 0.3, "unit": "nM"}]}]}
